US20210292396A1

Assays:
Test in all cases: cell-based or functional assay
[1] = target: Env of HIV isolate 3168.v4.c10 (clade C) (HIV)
[2] = target: HIV Env of isolate 3637.v5.c3 (HIV)
[3] = target: Env of HIV isolate CAP256.206.C9 (clade C) (HIV)
[4] = target: Env of HIV isolate T278-50 (clade AG) (HIV)
[5] = target: Env of HIV isolate BJOX025000.01.1 (clade AE) (HIV)
[6] = target: HIV Env of isolate ZM109.4 (HIV)
[7] = target: Env of HIV isolate 3589.v1.c4 (clade AC) (HIV)
[8] = target: HIV Env of isolate MW965.26 (HIV)
[9] = target: Env of HIV isolate MS208.A1 (clade A) (HIV)
[10] = target: Env of HIV isolate 271-11 (clade AG) (HIV)
[11] = target: Env of HIV isolate 0921.v2.c14 (clade C) (HIV)
[12] = target: Env of HIV isolate 57128.vrc15 (clade D) (HIV)
[13] = target: Env of HIV isolate ZM249.1 (clade C) (HIV)
[14] = target: HIV Env of isolate CE703010217.B6 (HIV)
[15] = target: Env of HIV isolate 25925-2.22 (clade C) (HIV)
[16] = target: Env of HIV isolate SS1196.01 (clade B) (HIV)
[17] = target: Env of HIV isolate CNE30 (clade C in Table 7) (HIV)
[18] = target: Env of HIV isolate CH070.1 (clade BC) (HIV)
[19] = target: Env of HIV isolate 6405.v4.c34 (clade D) (HIV)
[20] = target: HIV Env of isolate X2088.c9 (HIV)
[21] = target: Env of HIV isolate CE703010217.B6 (clade C) (HIV)
[22] = target: Env of HIV isolate MI369.A5 (clade A) (HIV)
[23] = target: Env of HIV isolate 3415.v1.c1 (clade A) (HIV)
[24] = target: HIV Env of isolate A03349M1.vrc4a (HIV)
[25] = target: Env of HIV isolate 0330.v4.c3 (clade A) (HIV)
[26] = target: Env of HIV isolate 191821.E6.1 (clade D) (HIV)
[27] = target: Env of HIV isolate THRO.18 (clade B) (HIV)
[28] = target: Env of HIV isolate CNE31 (clade C) (HIV)
[29] = target: HIV Env of isolate 3817.v2.c59 (HIV)
[30] = target: HIV Env of isolate ZM106.9 (HIV)
[31] = target: Env of HIV isolate BJOX028000.10.3 (clade AE) (HIV)
[32] = target: Env of HIV isolate Bal.01 (clade B) (HIV)
[33] = target: Env of HIV isolate DU156.12 (clade C) (HIV)
[34] = target: Env of HIV isolate T251-18 (clade AG) (HIV)
[35] = target: Env of HIV isolate QH0692.42 (clade B) (HIV)
[36] = target: HIV Env of isolate A07412M1.vrc12 (HIV)
[37] = target: Env of HIV isolate T280-5 (clade AG) (HIV)
[38] = target: Env of HIV isolate 6101.10 (clade B) (HIV)
[39] = target: Env of HIV isolate 3988.25 (clade B) (HIV)
[40] = target: HIV Env of isolate ZM233.6 (HIV)
[41] = target: Env of HIV isolate HT593.1 (clade B) (HIV)
[42] = target: Env of HIV isolate 247-23 (clade D) (HIV)
[43] = target: HIV Env of isolate ZM214.15 (HIV)
[44] = target: HIV Env of isolate CH070.1 (HIV)
[45] = target: Env of HIV isolate ZM106.9 (clade C) (HIV)
[46] = target: Env of HIV isolate UG021.16 (clade D) (HIV)
[47] = target: Env of HIV isolate CNE19 (clade BC) (HIV)
[48] = target: HIV Env of isolate CNE58 (HIV)
[49] = target: Env of HIV isolate UG037.8 (clade A) (HIV)
[50] = target: HIV Env of isolate CNE21 (HIV)

B1: ePGT121.18 (ePGT121.18.H1 VH and ePGT121.17.L1 VL) (antibody, V domains shown)
VH: QMQLQESGPGLVKPGETLSLTCSVSGASISSSYWSWLRETPGKGLEWIGYTHHSGDTNYAPSLKSRVHLGLHPSKNQVSLSLTSVTAADTAVYYCARTLHGRRIYGVVAFNEYYTYFYWPTWGKGTQVTVSS
VL: SDISVAPGETVRITCGGESIGSRAVQWYQHRPGQAPRLIIYNNQDRPPGIPERFSGSPDIDFGTTATLTISNVEAGDEATYYCHIWDSRRPTNWELGPGTTLTVL
- IC50, pseudovirus neutralization [1]: 12 ng/mL
- IC80, pseudovirus neutralization (M1) [2]: > 50000 ng/mL
- IC80, pseudovirus neutralization (M2) [2]: > 50000 ng/mL
- IC50, pseudovirus neutralization [3]: 1 ng/mL
- IC50, pseudovirus neutralization [4]: 1170 ng/mL
- IC50, pseudovirus neutralization [5]: > 50000 ng/mL
- IC80, pseudovirus neutralization (M1) [6]: > 50000 ng/mL
- IC80, pseudovirus neutralization (M2) [6]: > 50000 ng/mL
- IC50, pseudovirus neutralization [7]: 252 ng/mL
- IC80, pseudovirus neutralization (M1) [8]: 6 ng/mL
- IC80, pseudovirus neutralization (M2) [8]: 4 ng/mL
- IC50, pseudovirus neutralization [9]: > 50000 ng/mL
- IC50, pseudovirus neutralization [10]: > 50000 ng/mL
- IC50, pseudovirus neutralization [11]: 91 ng/mL
- IC50, pseudovirus neutralization [12]: 4 ng/mL
- IC50, pseudovirus neutralization [13]: 134 ng/mL
- IC80, pseudovirus neutralization (M1) [14]: 8 ng/mL
- IC80, pseudovirus neutralization (M2) [14]: 8 ng/mL
- IC50, pseudovirus neutralization [15]: 3 ng/mL
- IC50, pseudovirus neutralization [16]: 2 ng/mL
- IC50, pseudovirus neutralization [17]: 5 ng/mL
- IC50, pseudovirus neutralization [18]: 0.8 ng/mL
- IC50, pseudovirus neutralization [19]: 1 ng/mL
- IC80, pseudovirus neutralization (M1) [20]: 5 ng/mL
- IC80, pseudovirus neutralization (M2) [20]: 9 ng/mL
- IC50, pseudovirus neutralization [21]: 2 ng/mL
- IC50, pseudovirus neutralization [22]: 2 ng/mL
- IC50, pseudovirus neutralization [23]: 6 ng/mL
- IC80, pseudovirus neutralization (M1) [24]: 7 ng/mL
- IC80, pseudovirus neutralization (M2) [24]: 11 ng/mL
- IC50, pseudovirus neutralization [25]: 3 ng/mL
- IC50, pseudovirus neutralization [26]: 15 ng/mL
- IC50, pseudovirus neutralization [27]: > 50000 ng/mL
- IC50, pseudovirus neutralization [28]: 15 ng/mL
- IC80, pseudovirus neutralization (M1) [29]: 2580 ng/mL
- IC80, pseudovirus neutralization (M2) [29]: 6790 ng/mL
- IC80, pseudovirus neutralization (M1) [30]: 3 ng/mL
- IC80, pseudovirus neutralization (M2) [30]: 4 ng/mL
- IC50, pseudovirus neutralization [31]: 54 ng/mL
- IC50, pseudovirus neutralization [32]: 2 ng/mL
- IC50, pseudovirus neutralization [33]: 1 ng/mL
- IC50, pseudovirus neutralization [34]: 19 ng/mL
- IC50, pseudovirus neutralization [35]: 6 ng/mL
- IC80, pseudovirus neutralization (M1) [36]: 7 ng/mL
- IC80, pseudovirus neutralization (M2) [36]: 6 ng/mL
- IC50, pseudovirus neutralization [37]: 2 ng/mL
- IC50, pseudovirus neutralization [38]: 1 ng/mL
- IC50, pseudovirus neutralization [39]: 3 ng/mL
- IC80, pseudovirus neutralization (M1) [40]: 24 ng/mL
- IC80, pseudovirus neutralization (M2) [40]: 24 ng/mL
- IC50, pseudovirus neutralization [41]: 3 ng/mL
- IC50, pseudovirus neutralization [42]: > 50000 ng/mL
- IC80, pseudovirus neutralization (M1) [43]: 53 ng/mL
- IC80, pseudovirus neutralization (M2) [43]: 67 ng/mL
- IC80, pseudovirus neutralization (M1) [44]: 2 ng/mL
- IC80, pseudovirus neutralization (M2) [44]: 2 ng/mL
- IC50, pseudovirus neutralization [45]: 1 ng/mL
- IC50, pseudovirus neutralization [46]: 6 ng/mL
- IC50, pseudovirus neutralization [47]: 1 ng/mL
- IC80, pseudovirus neutralization (M1) [48]: 39 ng/mL
- IC80, pseudovirus neutralization (M2) [48]: 33 ng/mL
- IC50, pseudovirus neutralization [49]: 2 ng/mL
- IC80, pseudovirus neutralization (M1) [50]: 2 ng/mL
- IC80, pseudovirus neutralization (M2) [50]: 2 ng/mL

B2: ePGT121.15.H2.L1 (antibody, V domains shown)
VH: QMQLQESGPGLVKPGETLSLTCSVSGASISSSYWSWLRETPGKGLEWIGYTHHSGDTNYAPSLKSRVHLGLHPSKNQVSLSLTSVTAADTAVYYCARTLHGRRIYGVVAFNEWFTYFYWEVWGKGTQVTVSS
VL: SDISVAPGETVRISCGGESIGSRAVQWYQHRAGQAPKLIIYNNQDRPPGIPERFSGSPDIDFGTTATLTITNVEAGDEATYYCHIWDSRRPTNWVFGGGTTLTVL
- neutralization (Table 6 value) [29]: 0.00328
- neutralization (Table 6 value) [36]: 0.000944
- neutralization (Table 6 value) [48]: 0.00464
- neutralization (Table 6 value) [50]: 0.000874
